From article PMC10238197, “Deafness‐Associated ADGRV1 Mutation Impairs USH2A Stability through Improper Phosphorylation of WHRN and WDSUB1 Recruitment” (Advanced Science, 2023)
Each block holds one molecule with its values, some of them ahead of it.

Key:
[1] = target: WHRN with PDZ2 deleted (mouse) (UniProt Q80VW5); experiment: co-IP; cotransfected HEK293 cells, starved 12 h, lysed in 50 mM Tris-HCl pH 7.4, 150 mM NaCl, 1% Triton, 1% NP-40, 2 mM EDTA; anti-Flag M2 or anti-Myc antibody-conjugated agarose, 4 °C overnight; blots against the tags
[2] = target: T1, WHRN-PDZ2 domain, purified (mouse); experiment: SPR; BiaCore T200; WHRN-PDZ1 or WHRN-PDZ2 immobilised on a CM5 chip, peptide as analyte in serial dilutions, 120 s association and 120 s dissociation; 10 mM HEPES, 150 mM NaCl, 0.05% Surfactant P20, 0.01% DDM, 0.002% CHS, pH 7.4
T1 sequence (Q80VW5 whole entry, looked up): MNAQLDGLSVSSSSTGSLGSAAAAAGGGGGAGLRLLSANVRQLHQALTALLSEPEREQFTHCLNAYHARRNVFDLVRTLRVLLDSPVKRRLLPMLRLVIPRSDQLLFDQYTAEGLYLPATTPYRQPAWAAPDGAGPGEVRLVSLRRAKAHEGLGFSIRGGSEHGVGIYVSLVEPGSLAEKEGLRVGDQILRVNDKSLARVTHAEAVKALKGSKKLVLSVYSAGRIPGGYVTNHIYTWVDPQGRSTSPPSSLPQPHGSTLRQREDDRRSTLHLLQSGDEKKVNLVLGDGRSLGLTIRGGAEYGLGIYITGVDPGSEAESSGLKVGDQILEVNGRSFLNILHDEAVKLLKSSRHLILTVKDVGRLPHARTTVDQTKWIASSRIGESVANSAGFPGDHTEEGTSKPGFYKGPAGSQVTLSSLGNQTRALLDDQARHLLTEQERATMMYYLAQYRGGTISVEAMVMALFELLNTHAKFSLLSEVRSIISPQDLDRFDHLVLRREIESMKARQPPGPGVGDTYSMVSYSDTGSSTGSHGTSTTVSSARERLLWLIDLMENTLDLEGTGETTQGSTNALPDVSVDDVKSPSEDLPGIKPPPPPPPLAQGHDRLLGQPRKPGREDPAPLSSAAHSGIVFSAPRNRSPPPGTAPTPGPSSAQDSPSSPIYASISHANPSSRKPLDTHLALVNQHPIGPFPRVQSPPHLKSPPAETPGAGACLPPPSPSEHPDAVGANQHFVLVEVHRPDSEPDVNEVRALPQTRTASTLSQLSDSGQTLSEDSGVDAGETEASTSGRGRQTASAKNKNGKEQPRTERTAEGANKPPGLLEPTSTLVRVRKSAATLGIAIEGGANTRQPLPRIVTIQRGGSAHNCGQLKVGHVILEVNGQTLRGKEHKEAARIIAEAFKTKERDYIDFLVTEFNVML

[3] = target: T2, WHRN-PDZ1 domain, purified (mouse, UniProt Q80VW5 137-225); experiment: ITC; ITC200; purified PDZ protein 50 uM, peptide 1 mM; 20 mM Tris, 200 mM NaCl, 2 mM EDTA, pH 7.4; conditions: both partners purified
T2 construct: first PDZ domain of whirlin (WHRN), mouse; 13C,15N- or 15N-labelled for NMR; Residues up to A222 were assigned; source: purified protein
T2 sequence: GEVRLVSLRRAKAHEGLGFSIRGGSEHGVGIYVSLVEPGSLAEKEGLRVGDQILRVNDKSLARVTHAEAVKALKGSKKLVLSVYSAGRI

[4] = target: T2, WHRN-PDZ1 domain, purified; experiment: SPR; BiaCore T200; WHRN-PDZ1 or WHRN-PDZ2 immobilised on a CM5 chip, peptide as analyte in serial dilutions, 120 s association and 120 s dissociation; 10 mM HEPES, 150 mM NaCl, 0.05% Surfactant P20, 0.01% DDM, 0.002% CHS, pH 7.4; conditions: both partners purified

decrease of co-immunoprecipitated ADGRV1 against WT WHRN [1]: 85%
Molecule: ADGRV1 of the PDZ-truncation co-IP (Figure 6b,c) (from UniProt Q8VHN7 4333-6298) (receptor)

Kd [2]: 61.2 µM
B1: ADGRV1p, 10-residue C-terminal tail peptide of ADGRV1 harboring the PDZ-binding motif (peptide)
peptide: RRIPIADTHL

Kd [3]: 28.4 ± 4.2 µM
Kd [4]: 23 ± 2.01 µM
B2: USH2Ap, 10-residue C-terminal tail peptide of USH2A harboring the PDZ-binding motif (peptide, UniProt Q2QI47 5184-5193, looked up)
peptide: EHTAFTDTHL
notes: also called USH2A C-terminal peptide; source: synthetic peptide
